The target of data set [1] is T1, hDus2 full length (Homo sapiens, UniProt Q9NX74 1-493). Description: EMSA; same affinity as for full tRNA; value only in Fig S12e; EMSA: 50 mM Tris-HCl pH 8, 10% glycerol, 5 mM DTT, 150 mM ammonium acetate, 1 uM tRNALys3, 20 min room temperature; 6% native PAGE at 4 C. Conditions: protein: recombinant; tRNA fold, anticodon stem removed. Background: In EMSA bound probe runs differently from free probe, usually more slowly.

For data set [2], the target named is T1, hDus2 full length. Description: EMSA; same affinity as for deltaACS; value only in Fig S12e; EMSA: 50 mM Tris-HCl pH 8, 10% glycerol, 5 mM DTT, 150 mM ammonium acetate, 1 uM tRNALys3, 20 min room temperature; 6% native PAGE at 4 C. Conditions: protein: recombinant; tRNA fold.
The next data set deals with T2, hDus2 dsRBD K419A-K420A (Homo sapiens, UniProt Q9NX74 339-451, K419A;K420A).
T2 sequence: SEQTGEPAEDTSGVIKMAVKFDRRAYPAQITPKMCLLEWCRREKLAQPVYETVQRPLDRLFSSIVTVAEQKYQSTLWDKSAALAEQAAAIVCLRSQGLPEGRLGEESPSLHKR
Description: EMSA; EMSA: 50 mM Tris-HCl pH 8, 10% glycerol, 5 mM DTT, 150 mM ammonium acetate, 1 uM tRNALys3, 20 min room temperature; 6% native PAGE at 4 C. Conditions: protein: recombinant; label: 15N for tRNA-observed NMR; tRNA fold.

For data set [3], the target named is T3, hDus2 dsRBD R361A-R362A (Homo sapiens, UniProt Q9NX74 339-451, R361A;R362A).
T3 sequence: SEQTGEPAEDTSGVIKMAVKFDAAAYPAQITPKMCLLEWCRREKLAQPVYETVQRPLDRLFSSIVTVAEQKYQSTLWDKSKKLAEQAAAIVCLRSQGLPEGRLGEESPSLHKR
The description is as above. Conditions: protein: recombinant; label: 15N for tRNA-observed NMR; tRNA fold.

A further data set has as its target T4, hDus2 dsRBD K420A (Homo sapiens, UniProt Q9NX74 339-451, K420A).
T4 sequence: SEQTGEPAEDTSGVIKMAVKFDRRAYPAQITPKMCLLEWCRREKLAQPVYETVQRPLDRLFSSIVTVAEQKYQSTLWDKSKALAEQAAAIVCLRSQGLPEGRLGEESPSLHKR
The description is as above. Conditions: protein: recombinant; label: 15N for tRNA-observed NMR; tRNA fold.

In another data set the target is T5, hDus2 dsRBD R397A (Homo sapiens, UniProt Q9NX74 339-451, R397A).
T5 sequence: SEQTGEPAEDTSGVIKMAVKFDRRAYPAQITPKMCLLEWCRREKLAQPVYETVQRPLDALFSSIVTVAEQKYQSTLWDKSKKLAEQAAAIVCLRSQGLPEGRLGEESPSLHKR
Described as above. Conditions: protein: recombinant; label: 15N for tRNA-observed NMR; tRNA fold.

A further data set addresses T6, hDus2 dsRBD K371A (Homo sapiens, UniProt Q9NX74 339-451, K371A).
T6 sequence: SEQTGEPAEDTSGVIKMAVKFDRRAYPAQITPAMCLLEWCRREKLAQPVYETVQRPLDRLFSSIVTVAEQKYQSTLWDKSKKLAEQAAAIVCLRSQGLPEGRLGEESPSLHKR
Described as above. Conditions: protein: recombinant; label: 15N for tRNA-observed NMR; tRNA fold.

Another data set addresses T7, hDus2 dsRBD K419A (Homo sapiens, UniProt Q9NX74 339-451, K419A).
T7 sequence: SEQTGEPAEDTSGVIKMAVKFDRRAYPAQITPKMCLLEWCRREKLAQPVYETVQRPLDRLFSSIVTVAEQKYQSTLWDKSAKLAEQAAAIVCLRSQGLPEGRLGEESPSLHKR
The description is as above. Conditions: protein: recombinant; label: 15N for tRNA-observed NMR; tRNA fold.

Data set [4] has as its target T1, hDus2 full length. Description: SEC-MALLS; 1:1 protein:RNA; EMSA: 50 mM Tris-HCl pH 8, 10% glycerol, 5 mM DTT, 150 mM ammonium acetate, 1 uM tRNALys3, 20 min room temperature; 6% native PAGE at 4 C. Conditions: protein: recombinant; label: 15N for tRNA-observed NMR; tRNA fold.
In a further data set the target is T8, hDus2 dsRBD R362A (Homo sapiens, UniProt Q9NX74 339-451, R362A).
T8 sequence: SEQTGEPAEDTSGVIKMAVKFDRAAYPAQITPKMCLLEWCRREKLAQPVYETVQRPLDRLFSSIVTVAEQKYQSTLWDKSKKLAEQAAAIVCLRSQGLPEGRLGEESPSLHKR
Description: EMSA; no impact of mutation; EMSA: 50 mM Tris-HCl pH 8, 10% glycerol, 5 mM DTT, 150 mM ammonium acetate, 1 uM tRNALys3, 20 min room temperature; 6% native PAGE at 4 C. Conditions: protein: recombinant; label: 15N for tRNA-observed NMR; tRNA fold.

Data set [5] deals with T9, hDus2 dsRBD WT (Homo sapiens, UniProt Q9NX74 339-451).
T9 sequence: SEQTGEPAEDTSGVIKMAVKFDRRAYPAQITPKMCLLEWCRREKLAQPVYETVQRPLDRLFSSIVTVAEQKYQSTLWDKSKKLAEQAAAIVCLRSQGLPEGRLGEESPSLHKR
Description: EMSA; apparent Kd shown only in histogram; EMSA: 50 mM Tris-HCl pH 8, 10% glycerol, 5 mM DTT, 150 mM ammonium acetate, 1 uM tRNALys3, 20 min room temperature; 6% native PAGE at 4 C. Conditions: protein: recombinant; label: 15N for tRNA-observed NMR; tRNA fold.

The target of the next data set is T10, hDus2 dsRBD R361A (Homo sapiens, UniProt Q9NX74 339-451, R361A).
T10 sequence: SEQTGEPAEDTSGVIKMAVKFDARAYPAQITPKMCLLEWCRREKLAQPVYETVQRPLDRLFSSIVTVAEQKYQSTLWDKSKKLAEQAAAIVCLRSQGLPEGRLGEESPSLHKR
Description: EMSA; EMSA: 50 mM Tris-HCl pH 8, 10% glycerol, 5 mM DTT, 150 mM ammonium acetate, 1 uM tRNALys3, 20 min room temperature; 6% native PAGE at 4 C. Conditions: protein: recombinant.

The target in data set [6] is T3, hDus2 dsRBD R361A-R362A. The description is as above. Conditions: protein: recombinant.
Data set [7] addresses T9, hDus2 dsRBD WT. Description: X-ray crystallography; 20 mM MgCl2 in reservoir; EMSA: 50 mM Tris-HCl pH 8, 10% glycerol, 5 mM DTT, 150 mM ammonium acetate, 1 uM tRNALys3, 20 min room temperature; 6% native PAGE at 4 C. Conditions: protein: recombinant.

A value given as a limit tells only on which side of the number the result lay.

This passage reports binding result and binding signal results from PMC6451096, “Molecular basis for transfer RNA recognition by the double-stranded RNA-binding domain of human dihydrouridine synthase 2”.

T1 sequence (Q9NX74 whole entry): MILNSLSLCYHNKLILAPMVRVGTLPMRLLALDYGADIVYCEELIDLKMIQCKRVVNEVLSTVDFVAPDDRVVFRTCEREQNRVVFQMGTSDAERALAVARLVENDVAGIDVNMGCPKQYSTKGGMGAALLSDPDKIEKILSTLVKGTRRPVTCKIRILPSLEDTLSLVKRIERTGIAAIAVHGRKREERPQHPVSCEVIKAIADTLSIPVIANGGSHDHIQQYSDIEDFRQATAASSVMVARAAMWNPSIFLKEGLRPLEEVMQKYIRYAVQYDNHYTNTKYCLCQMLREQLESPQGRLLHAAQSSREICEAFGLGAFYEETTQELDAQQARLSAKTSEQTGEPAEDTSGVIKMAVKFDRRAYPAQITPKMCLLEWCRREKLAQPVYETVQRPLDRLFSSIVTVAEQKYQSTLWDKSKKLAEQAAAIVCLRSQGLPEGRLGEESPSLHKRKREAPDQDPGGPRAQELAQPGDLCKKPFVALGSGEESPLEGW

B1: tRNAPhe-deltaACS transcript (structured_RNA)
RNA: GCGGAUUUAGCUCAGUUGGGAGAGCGCCGAAGGGAGGUCCUGUGUUCGAUCCACAGAAUUCGCACCA
For B1, the binding result with hDus2 full length [1] is listed as “binds”.

B2: tRNAPhe transcript (structured_RNA)
RNA: GCGGAUUUAGCUCAGUUGGGAGAGCGCCAGACUGAAGAUCUGGAGGUCCUGUGUUCGAUCCACAGAAUUCGCACCA
On to B2, for which, in the data set with hDus2 full length [2], the binding result was “binds”.

B3: human tRNALys3 (structured_RNA)
RNA: GCCCGGAUAGCUCAGUCGGUAGAGCAUCAGACUUUUAAUCUGAGGGUCCAGGGUUCAAGUCCCUGUUCGGGCGCCA
modifications: modified in vivo in E. coli (Psi39 mentioned)
For B3, the binding signal with hDus2 dsRBD K419A-K420A is ~17 fold lower affinity than WT; with hDus2 dsRBD R361A-R362A [3], ~6 fold lower affinity than WT; in the data set with hDus2 dsRBD K420A, > 4 fold lower affinity than WT; in the data set with hDus2 dsRBD R397A it was ~2 fold lower affinity than WT; with hDus2 dsRBD K371A, ~8 fold lower affinity than WT; with hDus2 dsRBD K419A it was > 4 fold lower affinity than WT. In addition, the binding result with hDus2 full length [4], in the data set with hDus2 dsRBD R362A and with hDus2 dsRBD WT [5] was “binds” each time.

B4: 11-nt palindromic dsRNA (dsRNA)
RNA 1: CGAACUUCGCG
RNA 2: CGAACUUCGCG
In the case of B4, the values for the binding signal with hDus2 dsRBD R361A and with hDus2 dsRBD R361A-R362A [6] were ~3.7 fold lower affinity than same mutant for tRNA and ~1 affinity relative to same mutant for tRNA (similar), respectively. The binding result in the data set with hDus2 dsRBD WT [7] was “binds”.
